Patent publication US20210170043A1 (Novartis, published 2021)

T1: cynomolgus monkey DC-SIGN (full length, expressed on CHO cells) (cynomolgus monkey, UniProt Q95J96 1-403 (rhesus entry))
T1 construct: also called cyno DC-SIGN; cyno DC-SIGN CHO
T1 sequence: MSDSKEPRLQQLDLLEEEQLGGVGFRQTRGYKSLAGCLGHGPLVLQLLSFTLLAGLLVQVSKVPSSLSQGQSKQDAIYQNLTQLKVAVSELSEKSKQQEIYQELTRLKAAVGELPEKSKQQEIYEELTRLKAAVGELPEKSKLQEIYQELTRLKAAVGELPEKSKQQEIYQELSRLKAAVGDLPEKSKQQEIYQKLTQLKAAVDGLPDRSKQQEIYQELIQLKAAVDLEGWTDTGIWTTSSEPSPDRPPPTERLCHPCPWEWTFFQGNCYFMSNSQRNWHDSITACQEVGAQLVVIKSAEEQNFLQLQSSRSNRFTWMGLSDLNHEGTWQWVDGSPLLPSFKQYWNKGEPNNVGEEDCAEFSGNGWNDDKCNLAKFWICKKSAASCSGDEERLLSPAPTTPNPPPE

T2: human DC-SIGN (full length, expressed on cells) (human, UniProt Q9NNX6 1-404)
T2 construct: Also used for DC-SIGN on human monocyte-derived cells and on cells of human DC-SIGN transgenic mice in the functional rows; also called CD209; human DC-SIGN CHO
T2 sequence: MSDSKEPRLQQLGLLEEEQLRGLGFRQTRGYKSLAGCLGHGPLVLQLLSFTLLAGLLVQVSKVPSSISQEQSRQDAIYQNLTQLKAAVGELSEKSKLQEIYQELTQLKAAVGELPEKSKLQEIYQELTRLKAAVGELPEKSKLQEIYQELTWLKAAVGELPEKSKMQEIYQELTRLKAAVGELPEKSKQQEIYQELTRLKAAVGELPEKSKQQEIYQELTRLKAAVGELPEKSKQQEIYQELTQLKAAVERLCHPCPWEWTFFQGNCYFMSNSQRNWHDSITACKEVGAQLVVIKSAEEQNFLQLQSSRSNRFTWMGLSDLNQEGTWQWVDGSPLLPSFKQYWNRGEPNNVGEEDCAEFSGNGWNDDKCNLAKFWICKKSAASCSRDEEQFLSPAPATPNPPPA

T3: DC-SIGN Carbohydrate Recognition Domain (CRD), His-tagged (human, UniProt Q9NNX6 250-404)
T3 construct: also called DC-SIGN CRD; not shown: His tag used for capture
T3 sequence: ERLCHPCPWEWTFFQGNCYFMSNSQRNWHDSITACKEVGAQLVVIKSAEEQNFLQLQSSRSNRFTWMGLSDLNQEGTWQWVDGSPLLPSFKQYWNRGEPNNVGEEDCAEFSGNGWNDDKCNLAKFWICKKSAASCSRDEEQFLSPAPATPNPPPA


Columns and labels:
[1] = target: T1, cynomolgus monkey DC-SIGN (full length, …); test: flow cytometry, IgG titrated on cyno DC-SIGN CHO cells
[2] = target: T2, human DC-SIGN (full length, expressed …); test: flow cytometry, IgG titrated on human DC-SIGN CHO cells
[3] = target: T2, human DC-SIGN (full length, expressed …); test: flow cytometry, IgG titrated on human DC-SIGN K562 cells
[4] = target: T3, DC-SIGN Carbohydrate Recognition Domain …; test: SPR (Biacore 8K), antibody captured on anti-human IgG Fc chip, DC-SIGN CRD as analyte
[5] = target: T3, DC-SIGN Carbohydrate Recognition Domain …; test: SPR (Biacore 8K), His-tagged DC-SIGN CRD captured at high density on chip, antibody as analyte

| Binder | EC50 [1] | EC50 [2] | EC50 [3] | Kd [4] | Kd [5] |
| --- | --- | --- | --- | --- | --- |
| 906C18 Parental (antibody, V domains shown) VH: EVQLVESGGGLVQPGGSLRLSCAASGFTFNNYWMNWVRQAPGKGLEWVANIRQDGSEKYYVDSVKGRFTISRDNAKNSLFLQMNSLRAEDTAVYYCARERAYCSTTSCPDYSNDYWGQGTLVTVSS VL: EIVMTQSPATLSVSPGERATLSCRASQTINNNLAWFQQKPGQTPRLLIYGASTGATGIPARFSGSGSGTEFTLTISSLQSEDFAVYYCQQYNNWPRGLTFGGGTKVEIKR | 0.77 µg/mL | 0.21 µg/mL | 1.72 µg/mL | 1950 nM | 16 nM |
| 914M09 Parental (antibody, human IgG1, kappa, V domains shown) VH: QVQLQESGPGLVKPSETLSLTCAVSGGSISSYYWNLIRQPAGKGLEWIGRIYTSGSTNYNPSLKSRVTMSVDTSKNQFSLKLSSVTAADTAVYYCARDSGGFYYYYGMDVWGQGTTVTVSS VL: DIQLTQSPSFLSASVGDRVTITCRASQGISSYLAWYQQKPGKAPKLLIYAASTLQGGVPSRFSGSGSGTEFTLTISSLQPEDFATYHCQQLNSYPWTFGQGTKVEIKR | 0.08 µg/mL | 0.1 µg/mL | 0.25 µg/mL | 830 nM | 10 nM |
| 2B2 Chimeric (antibody, V domains shown, Murine variable regions on human constant regions) VH: EVQLQQSGAELVRPGSSVKMSCKTSGYTFTNYGINWVKQRPGQGLEWIGYIYIGNDYTEYNERFKGKATLTSDTSSSTAHIQLNSLTSEDSAIYFCARLYYGSSLYSYAMDYWGQGTSVTVSS VL: DIVMTQAAPSVSVTPGESVSISCRSSKSLLHSSGNTYLYWFLQRPGQSPQLLISRMSNLASGVPDRFSGSGSGTAFTLRISRVEAEDVGVYYCMQHLEYPYTFGGGTKLELKR | 0.32 µg/mL | 0.23 µg/mL | 0.28 µg/mL |  |  |
| 2B2 (parental antibody) (antibody, V domains shown, also called antibody 2B2) VH: EVQLQQSGAELVRPGSSVKMSCKTSGYTFTNYGINWVKQRPGQGLEWIGYIYIGNDYTEYNERFKGKATLTSDTSSSTAHIQLNSLTSEDSAIYFCARLYYGSSLYSYAMDYWGQGTSVTVSS VL: DIVMTQAAPSVSVTPGESVSISCRSSKSLLHSSGNTYLYWFLQRPGQSPQLLISRMSNLASGVPDRFSGSGSGTAFTLRISRVEAEDVGVYYCMQHLEYPYTFGGGTKLELK |  |  |  | 32 nM | 0.5 nM |
| 942K11 Parental (antibody, human IgG1, kappa, V domains shown) VH: QVQLQESGPGLVKPSETLSLTCTVSGGSISSYYWTWIRQPAGKGLEWIGRVFTSESTNYNPSLKNRVTMSVDTSKNQFSLRLNSVTAADTAMYYCARDRGTYLGGFDPWGQGTLVTVSS VL: not shown | 11.6 µg/mL | 0.2 µg/mL |  | 1260 nM | 180 nM |
| 550E03 Parental (antibody, V domains shown, also called 550Ee03) VH: QVTLRESGPALVKPTQTLTLTCTFSGFSLSTSGMSVSWIRQPPGKALEWLALIDWDDDKYYSTSLKTRLTISKDTSKNQVVLTMTNMDPVDTATYYCARMALRHAFDAWGQGTMVTVSS VL: QSVLTQPPSVSGAPGQRVTISCTGSSSNIGAGYDVHWYQQLPGTAPKLLIYVNSNRPSGVPDRFSGSKSGTSASLAITGLQAEDEADYYCQSYDSSLSGWVFGGGTKLTVLG | 0.39 µg/mL | 0.26 µg/mL | 1.5 µg/mL | 523 nM | 5.8 nM |
| 2B2 Hz (antibody, V domains shown, also called humanized 2B2) VH: QVQLVQSGAEVKKPGASVKVSCKASGYTFTNYGINWVRQAPGQRLEWMGYIYIGNDYTEYNERFKGRVTITSDTSASTAYMELSSLRSEDTAVYYCARLYYGSSLYSYAMDYWGQGTTVTVSS VL: DIVMTQSPLSLPVTPGEPASISCRSSKSLLHSSGNTYLYWFLQKPGQSPQLLISRMSNLASGVPDRFSGSGSGTDFTLKISRVEAEDVGVYYCMQHLEYPYTFGGGTKVEIKR | 0.04 µg/mL | 0.06 µg/mL | 0.27 µg/mL |  |  |
| 960K03 Parental (antibody, V domains shown) VH: QVTLRESGPALVKPTQTLTLTCTFSGFSLSTGGMCVSWIRQPPGKALEWLALIDWDDDKYYSTSLKTRLTISKDTSKNQLVLTMTNMDPVDTATYYCARAHSGSYFDFWGQGTLVTVSS VL: DIQMTQSPSTLSASVGDRVTITCRASQRISNWLAWYQQKPGKAPKLLIYKASSLESGVPSRFSGSGSGTEFTLTISSLQPDDFATYYCQQFNSYWTFGQGTKVEIKR | 0.02 µg/mL | 0.1 µg/mL |  | 955 nM | 0.8 nM |
| 956E02 Parental (antibody, human IgG1, kappa, V domains shown) VH: QVQLVQSGAEVKKPGASVKVSCKASGYTFTGYYINWVRQAPGQGLEWMGWINPNSGDTNYAQKFQGRVTMTRDPSISTAYMELSRLRSDDTAVYYCARENSGYGKLFDYWGQGTLVTVSS VL: not shown | 0.13 µg/mL | 0.12 µg/mL |  | 999 nM | 13 nM |
| 952P16 Parental (antibody, V domains shown) VH: QVTLRESGPALVKPTQTLTLTCTFSGFSLSTSGVSVSWIRQPPGKALEWLALIDWDDDKYYSTSLKTRLTISKDTSKNQVVLTMTNMDPVDTATYYCARTPSGSYGRYFDLWGRGTLVTVSS VL: not shown | 0.02 µg/mL | 0.06 µg/mL | 0.04 µg/mL | 395 nM | 3.8 nM |
| 958N05 Parental (antibody, V domains shown) VH: QVTLRESGPALVKPTQTLTLTCTFSGFSLSTSGISVSWIRQPPGKALEWLALIDWDDDKYYSTSLKTRLTISKDTSKNQVVLTMTNMDPVDTATYYCARTPSGSYGRYFDLWGRGTLVTVSS VL: DIQLTQSPSTLSASVGDRVTITCRASQSISNWLAWYQQKPGKAPKLLIYKASSLESGVPSRFTGSGSGTEFTLTISSLQPDDFATYYCQQYNSYWTFGQGTKVEIKR | 0.08 µg/mL | 0.07 µg/mL | 0.05 µg/mL | 174 nM | 1.7 nM |
| 952G04 Parental (antibody, V domains shown) VH: QVTLRESGPALVKPTQTLTLTCTFSGFSLSTSGVSVTWIRQPPGKALEWLALIDWDDDKYYSTSLKTRLAISKDTSKNQVVLTMTNMDPVDTATYYCARTPSGSYGRYFDLWGRGTLVTVSS VL: DIQMTQSPSTLSASVGDRVTITCRASQSISTWLAWYQQKPGKAPKLLIYEASSLESGVPSRFSGSGSGTEFTLTISSLQPDDFATYYCQQYNSYWTFGQGTKVEIKR | 0.19 µg/mL | 0.11 µg/mL | 0.26 µg/mL | 346 nM | 3.7 nM |
